T1: RNA polymerase I subunit A135 (Saccharomyces cerevisiae, UniProt P22138 1-1203)
T1 sequence: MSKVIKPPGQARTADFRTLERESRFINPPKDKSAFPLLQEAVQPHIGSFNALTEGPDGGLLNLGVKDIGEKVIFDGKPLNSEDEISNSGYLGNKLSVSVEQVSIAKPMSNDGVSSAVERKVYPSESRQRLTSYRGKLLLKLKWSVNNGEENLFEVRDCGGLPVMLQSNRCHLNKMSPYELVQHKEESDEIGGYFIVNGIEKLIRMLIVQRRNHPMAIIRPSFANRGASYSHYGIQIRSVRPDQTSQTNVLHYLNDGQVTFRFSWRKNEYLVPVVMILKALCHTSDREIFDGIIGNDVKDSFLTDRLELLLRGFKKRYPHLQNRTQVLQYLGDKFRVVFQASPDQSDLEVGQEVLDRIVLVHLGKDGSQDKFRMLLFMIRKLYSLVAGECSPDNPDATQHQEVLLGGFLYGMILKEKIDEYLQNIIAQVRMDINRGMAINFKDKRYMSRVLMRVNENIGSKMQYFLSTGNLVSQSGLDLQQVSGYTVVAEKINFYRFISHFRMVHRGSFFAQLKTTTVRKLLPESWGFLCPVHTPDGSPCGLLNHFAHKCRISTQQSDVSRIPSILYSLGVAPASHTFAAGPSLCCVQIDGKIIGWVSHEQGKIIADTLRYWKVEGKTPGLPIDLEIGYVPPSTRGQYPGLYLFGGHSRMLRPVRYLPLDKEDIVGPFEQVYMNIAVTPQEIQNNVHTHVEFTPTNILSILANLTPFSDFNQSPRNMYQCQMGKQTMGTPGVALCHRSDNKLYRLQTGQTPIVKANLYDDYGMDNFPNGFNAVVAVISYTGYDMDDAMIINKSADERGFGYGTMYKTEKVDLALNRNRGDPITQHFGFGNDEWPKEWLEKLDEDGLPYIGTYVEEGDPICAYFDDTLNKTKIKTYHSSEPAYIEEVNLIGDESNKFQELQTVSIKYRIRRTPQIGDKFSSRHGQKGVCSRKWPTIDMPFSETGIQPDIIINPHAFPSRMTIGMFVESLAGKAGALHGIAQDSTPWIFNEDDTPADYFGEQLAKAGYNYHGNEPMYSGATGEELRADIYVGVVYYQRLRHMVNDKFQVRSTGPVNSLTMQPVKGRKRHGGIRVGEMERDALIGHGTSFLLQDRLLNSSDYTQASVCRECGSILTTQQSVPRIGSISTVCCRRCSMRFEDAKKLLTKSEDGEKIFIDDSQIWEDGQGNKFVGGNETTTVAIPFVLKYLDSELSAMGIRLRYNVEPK

T2: RNA polymerase I subunit AC40 (Saccharomyces cerevisiae, UniProt P07703 1-335)
T2 sequence: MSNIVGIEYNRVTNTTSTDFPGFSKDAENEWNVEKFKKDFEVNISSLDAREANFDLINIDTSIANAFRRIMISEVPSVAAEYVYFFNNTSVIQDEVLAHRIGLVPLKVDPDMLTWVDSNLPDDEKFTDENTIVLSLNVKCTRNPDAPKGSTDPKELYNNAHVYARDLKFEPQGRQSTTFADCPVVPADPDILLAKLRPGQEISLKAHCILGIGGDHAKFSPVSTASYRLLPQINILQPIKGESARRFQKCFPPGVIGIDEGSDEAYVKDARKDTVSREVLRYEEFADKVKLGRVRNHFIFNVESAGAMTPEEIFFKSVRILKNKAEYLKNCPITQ

B1: RNA polymerase I subunit A49 (natural protein)
chain: MSVKRSVSEIEIESVQDQPSVAVGSFFKGFRAPSDTTFDLYKKKKSEKDEFVLHGENERLEYEGYTDSSSQASNQYVVGLFNPEKKSIQLYKAPVLVSKVVSKSSKNLRGPKIKSKSDTRPSALRNALGEAFGTKKAKKAIADLERNRIDSDKLTDSAIDIVDSVRTASKDLPTRAQLDEITSNDRPTPLANIDATDVEQIYPIESIIPKKELQFIRVSSILKEADKEKKLELFPYQNNSKYVAKKLDSLTQPSQMTKLQLLYYLSLLLGVYENRRVNNKTKLLERLNSPPEILVDGILSRFTVIKPGQFGRSKDRSYFIDPQNEDKILCYILAIIMHLDNFIVEITPLAHELNLKPSKVVSLFRVLGAIVKGATVAQAEAFGIPKSTAASYKIATMKVPFKLPEMTRRGRGPRR
B2: RNA polymerase I subunit A34.5 (natural protein)
chain: MSKLSKDYVSDSDSDDEVISNEFSIPDGFKKCKHLKNFPLNGDNKKKAKQQQVWLIKFPSNVDISKLKSLPVDFESSTTMTIDKHDYKIMDDTDIESSLTQDNLSNMTLLVPSESKESLKIASTAKDNAPLQFDKVFSVSETAKIPAIDYSKVRVPRKDVPKVEGLKLEHFATGYDAEDFHVAEEVKENKKEPKKRSHHDDEEESSEKKKKKKEKREKREKKDKKDKKKKHRD

Key:
Assay in all cases: cross-linking
[1] = biological target: RNA polymerase I subunit A190 (Saccharomyces cerevisiae, UniProt P10964 1-1664)
[2] = biological target: T1, RNA polymerase I subunit A135
[3] = biological target: B1
[4] = biological target: B2
[5] = biological target: T2, RNA polymerase I subunit AC40

Sequence of RNA polymerase I subunit A190 (P10964 whole entry): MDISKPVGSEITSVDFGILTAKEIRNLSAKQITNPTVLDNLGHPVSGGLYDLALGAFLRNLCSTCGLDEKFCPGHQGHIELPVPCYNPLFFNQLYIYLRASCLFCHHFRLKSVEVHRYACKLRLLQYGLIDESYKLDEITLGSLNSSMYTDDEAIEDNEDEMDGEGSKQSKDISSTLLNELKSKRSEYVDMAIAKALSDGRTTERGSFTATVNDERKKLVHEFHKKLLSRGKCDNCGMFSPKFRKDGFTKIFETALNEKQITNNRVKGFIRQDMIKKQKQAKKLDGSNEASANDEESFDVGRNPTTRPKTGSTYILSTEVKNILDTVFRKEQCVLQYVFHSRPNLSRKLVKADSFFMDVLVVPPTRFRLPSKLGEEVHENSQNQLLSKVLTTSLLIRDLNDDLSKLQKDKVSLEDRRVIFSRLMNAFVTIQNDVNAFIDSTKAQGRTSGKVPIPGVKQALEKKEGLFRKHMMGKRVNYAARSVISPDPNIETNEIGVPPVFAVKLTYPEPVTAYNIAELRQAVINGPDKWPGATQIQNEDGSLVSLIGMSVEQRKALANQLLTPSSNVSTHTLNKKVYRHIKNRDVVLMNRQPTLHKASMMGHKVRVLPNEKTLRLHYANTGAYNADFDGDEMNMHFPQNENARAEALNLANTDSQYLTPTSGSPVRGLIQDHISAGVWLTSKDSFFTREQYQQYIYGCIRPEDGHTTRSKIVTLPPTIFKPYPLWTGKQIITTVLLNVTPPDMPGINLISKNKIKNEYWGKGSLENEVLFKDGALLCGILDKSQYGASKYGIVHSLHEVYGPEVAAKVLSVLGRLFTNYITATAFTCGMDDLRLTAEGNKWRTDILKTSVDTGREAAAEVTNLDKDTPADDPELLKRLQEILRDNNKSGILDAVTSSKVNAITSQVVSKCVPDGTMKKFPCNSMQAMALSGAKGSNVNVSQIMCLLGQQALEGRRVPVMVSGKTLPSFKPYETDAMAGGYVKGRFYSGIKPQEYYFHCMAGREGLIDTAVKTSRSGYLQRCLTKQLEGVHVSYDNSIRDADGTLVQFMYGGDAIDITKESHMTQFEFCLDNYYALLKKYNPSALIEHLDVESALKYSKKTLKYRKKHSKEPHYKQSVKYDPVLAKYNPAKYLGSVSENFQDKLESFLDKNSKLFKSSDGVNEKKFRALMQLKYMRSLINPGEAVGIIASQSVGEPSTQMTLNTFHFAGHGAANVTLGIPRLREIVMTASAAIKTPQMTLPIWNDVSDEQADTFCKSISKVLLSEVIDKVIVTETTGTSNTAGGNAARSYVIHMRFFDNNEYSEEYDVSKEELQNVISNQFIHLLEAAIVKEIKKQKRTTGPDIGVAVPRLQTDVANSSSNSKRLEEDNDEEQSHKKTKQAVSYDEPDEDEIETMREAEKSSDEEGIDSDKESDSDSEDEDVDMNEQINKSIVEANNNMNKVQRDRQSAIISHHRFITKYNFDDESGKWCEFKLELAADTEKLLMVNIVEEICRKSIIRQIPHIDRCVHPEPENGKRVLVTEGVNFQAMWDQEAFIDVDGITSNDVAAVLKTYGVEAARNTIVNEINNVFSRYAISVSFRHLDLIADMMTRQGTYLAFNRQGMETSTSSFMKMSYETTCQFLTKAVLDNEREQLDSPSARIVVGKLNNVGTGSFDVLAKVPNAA

binding result [1]	binding result [2]	binding result [3]	Binder	further results
binds	binds	–	B1	–
–	–	binds	RNA polymerase I subunit A43 (natural protein) MSQVKRANENRETARFIKKHKKQVTNPIDEKNGTSNCIVRVPIALYVSLAPMYLENPLQGVMKQHLNPLVMKYNNKVGGVVLGYEGLKILDADPLSKEDTSEKLIKITPDTPFGFTWCHVNLYVWQPQVGDVLEGYIFIQSASHIGLLIHDAFNASIKKNNIPVDWTFVHNDVEEDADVINTDENNGNNNNEDNKDSNGGSNSLGKFSFGNRSLGHWVDSNGEPIDGKLRFTVRNVHTTGRVVSVDGTLISDADEEGNGYNSSRSQAESLPIVSNKKIVFDDEVSIENKESHKELDLPEVKEDNGSEIVYEENTSESNDGESSDSD	–
binds	binds	–	RNA polymerase I subunit A12.2 (natural protein) MSVVGSLIFCLDCGDLLENPNAVLGSNVECSQCKAIYPKSQFSNLKVVTTTADDAFPSSLRAKKSVVKTSLKKNELKDGATIKEKCPQCGNEEMNYHTLQLRSADEGATVFYTCTSCGYKFRTNN	–
–	–	–	RNA polymerase I subunit AC19 (natural protein) MTEDIEQKKTATEVTPQEPKHIQEEEEQDVDMTGDEEQEEEPDREKIKLLTQATSEDGTSASFQIVEEDHTLGNALRYVIMKNPDVEFCGYSIPHPSENLLNIRIQTYGETTAVDALQKGLKDLMDLCDVVESKFTEKIKSM	binding result [4]: binds
–	binds	binds	B2	binding result [5]: binds
–	–	binds	RNA polymerase subunit Rpb5 (natural protein) MDQENERNISRLWRAFRTVKEMVKDRGYFITQEEVELPLEDFKAKYCDSMGRPQRKMMSFQANPTEESISKFPDMGSLWVEFCDEPSVGVKTMKTFVIHIQEKNFQTGIFVYQNNITPSAMKLVPSIPPATIETFNEAALVVNITHHELVPKHIRLSSDEKRELLKRYRLKESQLPRIQRADPVALYLGLKRGEVVKIIRKSETSGRYASYRICM	–

From article PMC3384336 (Nucleic Acids Research, 2012)
